Earlier results on 2 substances are cited in PMC11381289.

The target of data set [1] is TL (Mus musculus) (UniProt P14432).
The target is the same in data set [2]. The source holds these as a separate data set.

Like-named read-outs stand apart in the source and are kept apart here.

Sequence of UniProt P14432 (P14432 27-314): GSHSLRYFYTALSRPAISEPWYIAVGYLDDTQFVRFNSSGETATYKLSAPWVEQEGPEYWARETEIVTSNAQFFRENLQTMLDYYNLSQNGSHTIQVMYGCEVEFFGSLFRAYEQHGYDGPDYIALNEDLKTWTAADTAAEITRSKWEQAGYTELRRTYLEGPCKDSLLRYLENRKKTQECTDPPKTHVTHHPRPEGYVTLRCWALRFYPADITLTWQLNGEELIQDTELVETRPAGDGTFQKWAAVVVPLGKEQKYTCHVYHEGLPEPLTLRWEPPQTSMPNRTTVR

A word on the Kd: it is the equilibrium constant for the complex coming apart. As to CD8αβ (from UniProt P01731), the Kd with TL (Mus musculus) [1] is over 90 µM.

For the substance CD8αα (from UniProt P01731), in the data set with TL (Mus musculus) [2], the Kd is 12 µM.
